Target: HER3 (Homo sapiens, UniProt P21860)
Assay: Reduction in expression of HER3 on cell surface (internalization), flow cytometry in HCC1569
Format: cell-based
Design: host or cells: HCC1569 (human breast cancer cell line)
Conditions: HCC1569, 10 ug/mL, 37 C, 1 hr
Protocol: HER3 internalization by U1-59 and each antibody-drug conjugate was evaluated by flow cytometry. 70,000 living cells of HCC1569 (from ATCC) were suspended in 0.5 mL of RPMI1640 (Invitrogen Corp., #31870-025) (containing 10% FBS (Invitrogen Corp., #10270-106 or PAN Biotech GmbH, #1505-P131304) and 2 mM glutamine (Invitrogen Corp., #25030-024)) and inoculated to each well of a 24-well plate. The cells were cultured for 4 days, and the medium was replaced with 0.5 mL of a fresh medium before the start of the internalization test. 5 ug of the antibody or each antibody-drug conjugate was added to 0.5 mL in each well of the 24-well plate such that the final concentration was 10 ug/mL. The cells were cultured for 1 hour at 37 C in the presence of the antibody or the antibody-drug conjugate. […]
For flow cytometry analysis, the cells were washed once with PBS and dissociated from the plate using 5 mM EDTA (100 uL/well) dissolved in ACCUTASE® SOLUTION (Millipore Corp., SCR005) or PBS. […] The fluorescence signals of living cells were measured using Accuri C6 Flow cytometer. […]
In order to quantify HER3-specific signals, values of cells stained with only the secondary antibody or 7-AAD were subtracted from FL-2 values of cells stained with the primary antibody and the secondary antibody, and further 7-AAD. […]

reduction in HER3 expression on cell surface: about 50%
Substance: U1-59: anti-HER3 human antibody; heavy and light chain variable regions SEQ ID NOs: 70 and 72; produced per WO 2007/077028

From patent US12685781B2, “Anti-HER3 antibody-drug conjugate” (DAIICHI SANKYO COMPANY, LIMITED, priority 2014, dated 2026)
